Test results as given in patent US6383734.

Tests used:
[1] = biological target: recombinant His-tagged mouse PAK3 from Sf9 cells (UniProt Q61036)
[2] = biological target: myc-tagged wild type Raf-1 (UniProt P04049)
[3] = biological target: Raf-CX (Raf modified to translocate to the plasma membrane independently of Ras) (UniProt P04049); test: cell-based or functional assay
[4] = biological target: myc-tagged wild type Raf-1 (UniProt P04049); test: cell-based or functional assay
[5] = biological target: Raf-CR3 (wild type), recombinant Raf-1 catalytic fragment, calmodulin binding protein fusion (UniProt P04049)
Raf-CR3[D338E339] = Raf-CR3[D338E339] (UniProt P04049)

Chain of p37, purified 37-kD Raf-1 serine 338/339 protein kinase from rat spleen (truncated PAK3) (chain, as listed by the source): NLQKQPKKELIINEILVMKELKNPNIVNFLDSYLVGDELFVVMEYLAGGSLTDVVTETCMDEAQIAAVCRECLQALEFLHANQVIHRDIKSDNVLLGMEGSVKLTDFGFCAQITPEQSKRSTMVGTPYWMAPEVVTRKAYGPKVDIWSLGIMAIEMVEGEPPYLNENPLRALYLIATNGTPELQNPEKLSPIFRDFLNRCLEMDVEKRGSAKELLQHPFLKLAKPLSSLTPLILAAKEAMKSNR
Chain of recombinant His-tagged mouse PAK3 from Sf9 cells (Q61036 other isoform, or with tags, fused parts or gaps): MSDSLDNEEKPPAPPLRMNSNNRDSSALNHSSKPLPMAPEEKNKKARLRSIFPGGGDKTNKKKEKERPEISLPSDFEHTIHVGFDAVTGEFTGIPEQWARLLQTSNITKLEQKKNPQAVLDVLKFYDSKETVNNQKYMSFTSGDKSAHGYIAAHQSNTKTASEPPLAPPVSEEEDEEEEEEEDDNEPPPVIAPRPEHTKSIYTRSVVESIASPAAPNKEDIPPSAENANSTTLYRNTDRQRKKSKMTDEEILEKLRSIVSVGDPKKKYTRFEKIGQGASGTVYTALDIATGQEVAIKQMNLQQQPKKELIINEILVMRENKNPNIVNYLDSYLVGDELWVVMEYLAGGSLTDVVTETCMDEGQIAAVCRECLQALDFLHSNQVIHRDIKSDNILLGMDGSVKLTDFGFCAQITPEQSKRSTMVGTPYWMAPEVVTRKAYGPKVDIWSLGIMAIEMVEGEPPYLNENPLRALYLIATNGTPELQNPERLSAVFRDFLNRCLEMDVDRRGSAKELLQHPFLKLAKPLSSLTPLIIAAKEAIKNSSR

GST-Cdc42 charged with GTPγS
stimulation of the Raf-1 peptide and Raf-CR3 serine 338/339 kinase activity of PAK3 [1]: stimulated up to six-fold by co-incubation with GST-Rac-GTPγS or GST-Cdc42-GTPγS

constitutively active HA-tagged PAK3[S91,A93,A95]
increase in the amount of phosphorylated serine 338 (immunoprecipitation with phosphoserine 338-specific antibody, 9E10 blot) [2]: 2.5 and 6.5-fold increases in the amount of phosphorylated serine 338

dominant negative HA-tagged PAK3[R278] (enzyme)
reduction of the intrinsic Raf kinase activity in COS-7 cells [3]: > 70%
reduction of the Ras[V12]-inducible activation of Raf-1 in COS-7 cells [4]: > 50%

p37, purified 37-kD Raf-1 serine 338/339 protein kinase from rat spleen (truncated PAK3)
specific activity (Raf-1 peptide phosphorylation) (Raf-1 (331-345) peptide): extremely high specific activity (19,500 pmol/min/mg)
phosphorylation of Raf-CR3 (32P, SDS-PAGE, autoradiography) [5]: The purified kinase phosphorylated the wild type Raf-CR3
share of incorporated 32P in the serine 338/339 tryptic peptides [5]: Over 95% of the 32P incorporated within the phosphorylated Raf-CR3 was associated with the serine 338/339 tryptic peptides
phosphorylation of Raf-CR3 (32P, SDS-PAGE, autoradiography) (Raf-CR3[D338E339]): failed to significantly phosphorylate the Raf-CR3[D338E339] mutant
